{"source": "paper PMC6692582", "key": {"[1]": {"target": "N-terminal NanoLuc-tagged VEGFR2 (wild type) (UniProt P35968)", "assay": "FRET or BRET; NanoBRET saturation binding, membranes from NanoLuc-VEGFR2 HEK293T cells (5 μg per well); increasing fluorescent ligand with or without 100 nM corresponding unlabelled ligand; 60 min, 37°C; HeBSS/0.1% BSA pH 7.4"}, "[2]": {"target": "N-terminal NanoLuc-tagged VEGFR2 (wild type) (UniProt P35968)", "assay": "FRET or BRET; NanoBRET kinetics, membranes from NanoLuc-VEGFR2 HEK293T cells (10 μg per well); five concentrations of fluorescent ligand (1–20 nM); every 30 s for 90 min at 37°C; KD kinetic (koff/kon)"}, "[3]": {"target": "N-terminal NanoLuc-tagged VEGFR2 (wild type) (UniProt P35968)", "assay": "FRET or BRET; NanoBRET kinetics, membranes from NanoLuc-VEGFR2 HEK293T cells (10 μg per well); five concentrations of fluorescent ligand (1–20 nM); every 30 s for 90 min at 37°C; KD kinetic (koff/kon)", "remark": "listed apart in the source"}, "[4]": {"target": "N-terminal NanoLuc-tagged VEGFR2 (wild type) (UniProt P35968)", "assay": "FRET or BRET; NanoBRET kinetics, wild-type NanoLuc-VEGFR2 membranes (10 μg per well), HeBSS/0.1% BSA pH 7.4 (matched with pH 6.0); four concentrations of VEGF165b-TMR (3–20 nM), 37°C; KD kinetic (koff/kon)"}, "[5]": {"target": "N-terminal NanoLuc-tagged VEGFR2 (wild type) (UniProt P35968)", "assay": "FRET or BRET; NanoBRET kinetics, wild-type NanoLuc-VEGFR2 membranes (10 μg per well), HeBSS/0.1% BSA pH 6.0 (5.8–6.2); four concentrations of VEGF165b-TMR (3–20 nM), 37°C; KD kinetic (koff/kon)"}, "[6]": {"target": "N-terminal NanoLuc-tagged VEGFR2 (wild type) (UniProt P35968)", "assay": "FRET or BRET; NanoBRET kinetics, intact HEK293T cells stably expressing NanoLuc-VEGFR2, pretreated with 1 μM cediranib (30 min, 37°C); four concentrations of VEGF165b-TMR (3–20 nM), every 30 s for 90 min at 37°C; constants from a global association fit to the initial 20 min; KD kinetic (koff/kon)"}, "[7]": {"target": "N-terminal NanoLuc-tagged VEGFR2 (wild type) (UniProt P35968)", "assay": "FRET or BRET; NanoBRET kinetics, NanoLuc-VEGFR2 membranes preincubated with 0.01% DMSO (30 min, 37°C); four concentrations of VEGF165b-TMR (3–20 nM), 90 min at 37°C; KD kinetic (koff/kon)"}, "[8]": {"target": "N-terminal NanoLuc-tagged VEGFR2 (wild type) (UniProt P35968)", "assay": "FRET or BRET; NanoBRET kinetics, NanoLuc-VEGFR2 membranes preincubated with 1 μM cediranib (30 min, 37°C); four concentrations of VEGF165b-TMR (3–20 nM), 90 min at 37°C; KD kinetic (koff/kon)"}, "[9]": {"target": "N-terminal NanoLuc-tagged VEGFR2 (wild type) (UniProt P35968)", "assay": "FRET or BRET; NanoBRET saturation binding, wild-type NanoLuc-VEGFR2 membranes (5 μg per well), HeBSS/0.1% BSA pH 6.0 (5.8–6.2); with or without 100 nM VEGF165b; 60 min, 37°C"}, "[10]": {"target": "N-terminal NanoLuc-tagged VEGFR2 (wild type) (UniProt P35968)", "assay": "FRET or BRET; NanoBRET kinetics, intact HEK293T cells stably expressing NanoLuc-VEGFR2, pretreated with 0.01% DMSO (30 min, 37°C); four concentrations of VEGF165b-TMR (3–20 nM), every 30 s for 90 min at 37°C; constants from a global association fit to the initial 20 min; KD kinetic (koff/kon)"}, "[11]": {"target": "N-terminal NanoLuc-tagged VEGFR2 (wild type) (UniProt P35968)", "assay": "FRET or BRET; NanoBRET saturation binding, wild-type NanoLuc-VEGFR2 membranes (5 μg per well), HeBSS/0.1% BSA pH 7.4 (matched with pH 6.0); with or without 100 nM VEGF165b; 60 min, 37°C"}, "[12]": {"target": "N-terminal NanoLuc-tagged VEGFR2 (wild type) (UniProt P35968)", "assay": "FRET or BRET; NanoBRET displacement, membranes from NanoLuc-VEGFR2 HEK293T cells (5 μg per well); five fixed concentrations of fluorescent ligand with increasing VEGF-Ax (0.03–30 nM); 60 min, 37°C; Ki by Cheng–Prusoff"}, "[13]": {"target": "tyrosine phosphorylation-deficient NanoLuc-VEGFR2 (UniProt P35968)", "assay": "FRET or BRET; NanoBRET time course, intact HEK293T cells transiently transfected with wild-type or tyrosine phosphorylation-deficient NanoLuc-VEGFR2; 3 or 20 nM VEGF121a-TMR; every 30 s at 37°C"}, "[14]": {"target": "N-terminal NanoLuc-tagged VEGFR2 (wild type) (UniProt P35968)", "assay": "FRET or BRET; NanoBRET time course, intact HEK293T cells transiently transfected with wild-type or tyrosine phosphorylation-deficient NanoLuc-VEGFR2; 3 or 20 nM VEGF121a-TMR; every 30 s at 37°C"}, "[15]": {"target": "tyrosine phosphorylation-deficient NanoLuc-VEGFR2 (UniProt P35968)", "assay": "FRET or BRET; NanoBRET kinetics, membranes from a stable cell line expressing tyrosine phosphorylation-deficient NanoLuc-VEGFR2; four concentrations of VEGF121a-TMR (3–20 nM), 90 min at 37°C; KD kinetic (koff/kon)"}, "[16]": {"target": "NanoLuc-VEGFR2 (Homo sapiens) (UniProt P35968)", "assay": "NanoBRET kinetics, intact cells", "conditions": "cited from earlier work"}}}
{"substance": "VEGF165a-TMR (from UniProt P15692-4 1-191) (ligand)", "values": [{"measurement": "Kd", "setting": "[1]", "result": 0.31, "unit": "nM"}, {"measurement": "Kd", "setting": "[2]", "result": 2.21, "unit": "nM"}, {"measurement": "Kd", "setting": "[3]", "result": 2.4, "unit": "nM"}]}
{"substance": "VEGF165b-TMR (from UniProt P15692-8 1-191) (ligand)", "values": [{"measurement": "Kd", "setting": "[4]", "result": 10.2, "unit": "nM"}, {"measurement": "koff", "setting": "[4]", "result": 0.000383, "unit": "s⁻¹"}, {"measurement": "kon", "setting": "[4]", "result": 39000, "unit": "M⁻¹ s⁻¹"}, {"measurement": "residence time", "setting": "[4]", "result": 43.5, "unit": "min"}, {"measurement": "Kd", "setting": "[1]", "result": 5.55, "unit": "nM"}, {"measurement": "Kd", "setting": "[2]", "result": 9.21, "unit": "nM"}, {"measurement": "koff", "setting": "[2]", "result": 0.000483, "unit": "s⁻¹"}, {"measurement": "kon", "setting": "[2]", "result": 61500, "unit": "M⁻¹ s⁻¹"}, {"measurement": "residence time", "setting": "[2]", "result": 34.5, "unit": "min"}, {"measurement": "Kd", "setting": "[5]", "result": 13.3, "unit": "nM"}, {"measurement": "koff", "setting": "[5]", "result": 0.000983, "unit": "s⁻¹"}, {"measurement": "kon", "setting": "[5]", "result": 73200, "unit": "M⁻¹ s⁻¹"}, {"measurement": "residence time", "setting": "[5]", "result": 17, "unit": "min"}, {"measurement": "AUC of the NanoBRET time course at 5 nM", "setting": "[6]", "result": 0.77}, {"measurement": "AUC of the NanoBRET time course at 20 nM", "setting": "[6]", "result": 2.04}, {"measurement": "Kd", "setting": "[6]", "result": 43.6, "unit": "nM"}, {"measurement": "koff", "setting": "[6]", "result": 0.00152, "unit": "s⁻¹"}, {"measurement": "kon", "setting": "[6]", "result": 43800, "unit": "M⁻¹ s⁻¹"}, {"measurement": "residence time", "setting": "[6]", "result": 11, "unit": "min"}, {"measurement": "Kd", "setting": "[7]", "result": 9.68, "unit": "nM"}, {"measurement": "koff", "setting": "[7]", "result": 0.000383, "unit": "s⁻¹"}, {"measurement": "kon", "setting": "[7]", "result": 44800, "unit": "M⁻¹ s⁻¹"}, {"measurement": "residence time", "setting": "[7]", "result": 43.5, "unit": "min"}, {"measurement": "Kd", "setting": "[8]", "result": 8, "unit": "nM"}, {"measurement": "koff", "setting": "[8]", "result": 0.00035, "unit": "s⁻¹"}, {"measurement": "kon", "setting": "[8]", "result": 45700, "unit": "M⁻¹ s⁻¹"}, {"measurement": "residence time", "setting": "[8]", "result": 47.6, "unit": "min"}, {"measurement": "Kd", "setting": "[9]", "result": 4.43, "unit": "nM"}, {"measurement": "AUC of the NanoBRET time course at 5 nM", "setting": "[10]", "result": 0.71}, {"measurement": "AUC of the NanoBRET time course at 20 nM", "setting": "[10]", "result": 1.8}, {"measurement": "Kd", "setting": "[10]", "result": 19.8, "unit": "nM"}, {"measurement": "koff", "setting": "[10]", "result": 0.00135, "unit": "s⁻¹"}, {"measurement": "kon", "setting": "[10]", "result": 71000, "unit": "M⁻¹ s⁻¹"}, {"measurement": "residence time", "setting": "[10]", "result": 12.3, "unit": "min"}, {"measurement": "Kd", "setting": "[11]", "result": 5.29, "unit": "nM"}]}
{"substance": "VEGF-Ax (ligand)", "values": [{"measurement": "pKi (fluorescent probe VEGF121a-TMR)", "setting": "[12]", "result": 10.3}, {"measurement": "pKi (fluorescent probe VEGF165a-TMR)", "setting": "[12]", "result": 10.2}, {"measurement": "pKi (fluorescent probe VEGF165b-TMR)", "setting": "[12]", "result": 9.96}]}
{"substance": "VEGF121a-TMR (from UniProt P15692-9 1-147) (ligand)", "values": [{"measurement": "Kd", "setting": "[1]", "result": 2.58, "unit": "nM"}, {"measurement": "Kd", "setting": "[2]", "result": 3.85, "unit": "nM"}, {"measurement": "koff", "setting": "[2]", "result": 0.000317, "unit": "s⁻¹"}, {"measurement": "kon", "setting": "[2]", "result": 85500, "unit": "M⁻¹ s⁻¹"}, {"measurement": "residence time", "setting": "[2]", "result": 52.6, "unit": "min"}, {"measurement": "AUC of the NanoBRET time course at 3 nM", "setting": "[13]", "result": 3.54}, {"measurement": "AUC of the NanoBRET time course at 20 nM", "setting": "[13]", "result": 9.79}, {"measurement": "AUC of the NanoBRET time course at 3 nM", "setting": "[14]", "result": 2.61}, {"measurement": "AUC of the NanoBRET time course at 20 nM", "setting": "[14]", "result": 7.28}, {"measurement": "Kd", "setting": "[15]", "result": 6.85, "unit": "nM"}, {"measurement": "koff", "setting": "[15]", "result": 0.000617, "unit": "s⁻¹"}, {"measurement": "kon", "setting": "[15]", "result": 104000, "unit": "M⁻¹ s⁻¹"}, {"measurement": "residence time", "setting": "[15]", "result": 27, "unit": "min"}]}
{"substance": "VEGF165a-TMR (from UniProt P15692)", "values": [{"measurement": "Kd", "setting": "[16]", "result": 6.64, "unit": "nM"}]}
